From PMC4196048 (The Journal of Membrane Biology, 2014) come the findings set out here.

This data set concerns the molecule itself. Briefly: negative-stain transmission electron microscopy.

B1: LPS-free OmpF refolded from inclusion bodies, reconstituted into Amphipol A8-35 (natural protein)
chain: MEIYNKDGNKVDLYGKAVGLHYFSKGNGENSYGGNGDMTYARLGFKGETQINSDLTGYGQWEYNFQGNNSEGADAQTGNKTRLAFAGLKYADVGSFDYGRNYGVVYDALGYTDMLPEFGGDTAYSDDFFVGRVGGVATYRNSNFFGLVDGLNFAVQYLGKNERDTARRSNGDGVGGSISYEYEGFGIVGAYGAADRTNLQEAQPLGNGKKAEQWATGLKYDANNIYLAANYGETRNATPITNKFTNTSGFANKTQDVLLVAQYQFDFGLRPSIAYTKSKAKDVEGIGDVDLVNYFEVGATYYFNKNMSTYVDYIINQIDSDNKLGVGSDDTVAVGIVYQF
Consider B1, for which the binding result is given as “binds”.
